Experimental findings from article PMC5709738 (The EMBO Journal, 2017) are described below.

The target in experiment [1] is COMA (K. lactis, full length: Ame1, Ctf19, Mcm21, Okp1) (Kluyveromyces lactis) (UniProt Q6CUE5). Briefly: SEC-MALS; COMA injected at ~43 uM (COMA dimer) on Superdex 200 10/300; max. dimeric COMA concentration in the principal peak 2.4 uM.
The target is the same in experiment [2]. In words: native MS; nanoflow electrospray of intact assemblies in 200 mM ammonium acetate pH 6.7-7.3 or 7.4; higher micromolar concentrations (COMA ~3 or ~6 uM; COMA-Nkp1-Nkp2 ~3 uM).
For experiment [3], the target named is COMA-MIND (K. lactis COMA bound with MIND-C1) (Kluyveromyces lactis) (UniProt Q6CUE5). The experiment is described as above.
Another experiment deals with S. cerevisiae clones. Briefly: dilution-series growth assay on solid YPD agar with benomyl. The note with it: 20 μg/ml benomyl. Type of experiment: cell-based. An excerpt: For vegetative growth assays on solid agar, we serially diluted our mitotically cycling S. cerevisiae clone suspensions to an absorbance at 600 nm (A600) of 0.4, in 96‐well plates (Nunc; Thermo Fisher Scientific). From this suspension, we sequentially fourfold diluted suspensions with minimal synthetic complete medium row‐wise (Fig 8A and C; Appendix Fig S9A, B and E). We spotted S. cerevisiae suspensions with a sterilized 48‐head metal pinner (V & P Scientific, Inc.). We prepared our solid YPD agar that contained benomyl with a final concentration of 20 μg/ml benomyl (Sigma‐Aldrich). We did our growth experiments with S. cerevisiae clones that encode Mad1 fused to an auxin‐inducible degron (Appendix Fig S9E) on solid yeast‐extract peptone (YEP) agar with 2% (w/v) raffinose and 2% (w/v) galactose, and 1 mM of the synthetic auxin analogue 1‐napthylic acetic acid (NAA; Carl Roth), similarly as described (Nishimura et al, 2009). To prepare S. cerevisiae extracts for our Western blot that we show an image in Appendix Fig S9F, we grew cultures in YEP with 2% (w/v) raffinose and 2% (w/v) galactose to an A600 of 0.3. After the addition of NAA to a concentration of 1 mM, we collected cells from cultures after specific time points (Appendix Fig S9F) by centrifugation.

Experiment [4] has as its target T1, full-length Ctf19-Mcm21 (K. lactis) (Kluyveromyces lactis, UniProt Q6CRN7 1-270; Q6CVQ9 1-293).
T1 chain 1: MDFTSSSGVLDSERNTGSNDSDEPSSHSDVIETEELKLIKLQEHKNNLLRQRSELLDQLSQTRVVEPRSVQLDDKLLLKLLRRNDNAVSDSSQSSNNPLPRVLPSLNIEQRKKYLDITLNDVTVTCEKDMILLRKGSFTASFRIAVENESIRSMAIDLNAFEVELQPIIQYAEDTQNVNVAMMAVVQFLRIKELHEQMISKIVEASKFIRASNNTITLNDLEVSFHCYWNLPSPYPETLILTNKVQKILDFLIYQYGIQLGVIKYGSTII
T1 chain 2: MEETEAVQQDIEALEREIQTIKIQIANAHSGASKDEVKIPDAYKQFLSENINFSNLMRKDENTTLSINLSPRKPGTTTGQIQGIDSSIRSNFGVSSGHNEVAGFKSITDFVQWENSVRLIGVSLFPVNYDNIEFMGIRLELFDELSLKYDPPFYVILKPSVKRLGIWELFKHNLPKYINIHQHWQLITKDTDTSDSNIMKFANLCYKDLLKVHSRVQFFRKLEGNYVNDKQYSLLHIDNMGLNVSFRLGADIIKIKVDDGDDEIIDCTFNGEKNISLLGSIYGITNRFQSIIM
Briefly: MST.

On to “COMA (K. lactis, full length: Ame1, Ctf19, Mcm21, Okp1) (from UniProt Q6CUE5 1-292; Q6CRN7 1-270; Q6CVQ9 1-293; Q6CJY0 1-383) (complex)”, for which the stoichiometry N in experiment [1] and in experiment [2] was 2 throughout.
With “COMA-MIND (K. lactis COMA bound with MIND-C1) (from UniProt Q6CUE5 1-292; Q6CRN7 1-270; Q6CVQ9 1-293; Q6CJY0 1-383) (complex)”, the stoichiometry N in experiment [3] is 2.
On to `CCCCNC(=O)n1c(NC(=O)OC)nc2ccccc21` [benomyl], for which the “benomyl sensitivity (growth)” value in the experiment with S. cerevisiae clones (Okp1_cmΔ and Okp1_cmΔnnΔ mutants, solid YPD agar, elevated temperature) is on record as “sensitive to benomyl”. Moreover, the “growth in the presence of benomyl” value in the experiment on S. cerevisiae clones (Okp1_cmΔ cnn1Δ mutant compared with Okp1_cmΔ or cnn1Δ, 37°C) is recorded as “reduced growth”.
Molecule SNEIYQQDKIDANLKLKTDF (synthetic peptide; terminal chemistry not stated) [F329A] returned a Kd in experiment [4] of 25.3 µM.
